{"source": "paper PMC5606096", "about": "“High-level expression and characterization of a novel cutinase from Malbranchea cinnamomea suitable for butyl butyrate production” (Biotechnology for Biofuels, 2017)", "key": {"[1]": {"tested_on": "T1, CCCC(=O)Oc1ccc([N+](=O)[O-])cc1", "T1 construct": "signal peptide (16 residues) removed, 215-residue precursor; pPIC9K secreted from Pichia pastoris GS115; purified on Q Sepharose; no tag mentioned", "test": "p-nitrophenol release, Michaelis-Menten fit (GraFit)", "assay_type": "biochemical, Malbranchea cinnamomea", "details": "50 mM Tris-HCl pH 8.0, 45 °C, 5 min"}, "[2]": {"tested_on": "T2, CCCCCC(=O)Oc1ccc([N+](=O)[O-])cc1", "T2 construct": "signal peptide (16 residues) removed, 215-residue precursor; pPIC9K secreted from Pichia pastoris GS115; purified on Q Sepharose; no tag mentioned", "test": "p-nitrophenol release, Michaelis-Menten fit (GraFit)", "assay_type": "biochemical, Malbranchea cinnamomea", "details": "50 mM Tris-HCl pH 8.0, 45 °C, 5 min"}}}
{"substance": "McCut (Malbranchea cinnamomea)", "values": [{"measurement": "Km", "setting": "[1]", "value": 660, "unit": "µM"}, {"measurement": "kcat", "setting": "[1]", "value": 0.46, "unit": "s⁻¹"}, {"measurement": "Km", "setting": "[2]", "value": 270, "unit": "µM"}, {"measurement": "kcat", "setting": "[2]", "value": 0.46, "unit": "s⁻¹"}]}
